The record followed here is paper PMC6179184, “Interaction of the Warsaw breakage syndrome DNA helicase DDX11 with the replication fork-protection factor Timeless promotes sister chromatid cohesion” (PLoS Genetics, 2018).

For experiment [1], the target named is T1, recombinant human Flag-Timeless (human, UniProt Q9UNS1 1-1208).
T1 construct: Timeless, human, component of the replication fork-protection complex; also called Flag-tagged Timeless; source: insect cells infected with a recombinant baculovirus (Sf9), purified
T1 sequence (looked up): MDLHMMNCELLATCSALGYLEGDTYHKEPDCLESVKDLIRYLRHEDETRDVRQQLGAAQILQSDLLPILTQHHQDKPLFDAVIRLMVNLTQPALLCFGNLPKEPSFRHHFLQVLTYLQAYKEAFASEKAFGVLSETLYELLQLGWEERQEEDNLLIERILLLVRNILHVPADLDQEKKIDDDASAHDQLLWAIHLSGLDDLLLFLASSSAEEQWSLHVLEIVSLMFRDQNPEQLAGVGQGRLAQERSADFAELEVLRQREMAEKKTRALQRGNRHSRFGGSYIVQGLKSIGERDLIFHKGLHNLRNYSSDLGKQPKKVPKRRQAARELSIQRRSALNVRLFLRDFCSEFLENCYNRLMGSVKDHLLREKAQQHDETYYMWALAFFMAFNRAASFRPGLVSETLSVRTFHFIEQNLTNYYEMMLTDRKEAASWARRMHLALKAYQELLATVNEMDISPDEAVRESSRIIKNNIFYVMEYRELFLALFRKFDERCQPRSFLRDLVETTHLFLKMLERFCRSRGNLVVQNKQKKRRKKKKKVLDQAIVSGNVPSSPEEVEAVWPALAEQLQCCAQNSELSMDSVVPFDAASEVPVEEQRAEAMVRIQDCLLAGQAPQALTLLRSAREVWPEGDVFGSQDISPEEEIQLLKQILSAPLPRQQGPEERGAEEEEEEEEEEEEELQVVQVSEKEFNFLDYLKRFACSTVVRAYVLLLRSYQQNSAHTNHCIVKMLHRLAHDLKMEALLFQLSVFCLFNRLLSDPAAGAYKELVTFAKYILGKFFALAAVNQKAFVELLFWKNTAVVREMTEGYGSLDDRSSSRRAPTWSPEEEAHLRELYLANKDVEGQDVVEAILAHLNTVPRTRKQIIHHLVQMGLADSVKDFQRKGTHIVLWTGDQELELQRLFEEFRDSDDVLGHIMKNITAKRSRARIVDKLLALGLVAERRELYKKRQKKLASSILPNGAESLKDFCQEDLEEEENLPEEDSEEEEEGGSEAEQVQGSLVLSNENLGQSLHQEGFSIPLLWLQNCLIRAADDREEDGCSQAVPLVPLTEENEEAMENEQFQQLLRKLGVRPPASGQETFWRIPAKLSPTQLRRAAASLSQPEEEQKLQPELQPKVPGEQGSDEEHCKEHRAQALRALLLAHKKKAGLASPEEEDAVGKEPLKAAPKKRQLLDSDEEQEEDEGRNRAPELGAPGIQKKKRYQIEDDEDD
Briefly: peptide or protein array; PEPperCHIP microarrays of 15-residue DDX11 peptides on glass slides (tiling array, 13-residue overlap; full substitution scan of peptide # 32); Flag-Timeless at 50 ug/mL in PBS, 0.05% Tween 20, 1% BSA for 16 hr; detected with Cy3-labelled anti-Flag antibody; control array without Flag-Timeless. The settings on record: both partners purified.

Experiment [2] addresses T1, recombinant human Flag-Timeless. Briefly: pull-down; mixtures of purified recombinant proteins (Timeless 0.8 ug or cohesin 1 ug, DDX11 0.5 ug, 200 uL) with anti-DDX11 antibody on Protein A beads; 25 mM Tris-HCl pH 7.5, 150 mM NaCl, 2 mM MgCl2, 1 mM DTT, 5% glycerol, 2 hr at 4 C; washes with 300 mM NaCl, 0.25% Triton X-100; immuno-blot. The settings on record: both partners purified.

B1: DDX11 Peptide # 32 (peptide)
peptide: EQLESGEEELVLAEY
notes: 15-residue peptide of human DDX11 (906-residue protein), in Region T (65-225); its two C-terminal residues are Glu201 and Tyr202 of full-length DDX11; source: synthetic peptide, printed on a PEPperCHIP microarray (PEPperPRINT)
In the case of B1, in experiment [1], the binding result is given as “binds”.

B2: DDX11-3xFlag wild type (enzyme, human, UniProt Q96FC9-2 1-906, looked up)
chain: MANETQKVGAIHFPFPFTPYSIQEDFMAELYRVLEAGKIGIFESPTGTGKSLSLICGALSWLRDFEQKKREEEARLLETGTGPLHDEKDESLCLSSSCEGAAGTPRPAGEPAWVTQFVQKKEERDLVDRLKAEQARRKQREERLQQLQHRVQLKYAAKRLRQEEEERENLLRLSREMLETGPEAERLEQLESGEEELVLAEYESDEEKKVASRVDEDEDDLEEEHITKIYYCSRTHSQLAQFVHEVKKSPFGKDVRLVSLGSRQNLCVNEDVKSLGSVQLINDRCVDMQRSRHEKKKGAEEEKPKRRRQEKQAACPFYNHEQMGLLRDEALAEVKDMEQLLALGKEARACPYYGSRLAIPAAQLVVLPYQMLLHAATRQAAGIRLQDQVVIIDEAHNLIDTITGMHSVEVSGSQLCQAHSQLLQYVERYGKRLKAKNLMYLKQILYLLEKFVAVLGGNIKQNPNTQSLSQTGTELKTINDFLFQSQIDNINLFKVQRYCEKSMISRKLFGFTERYGAVFSSREQPKLAGFQQFLQSLQPRTTEALAAPADESQASTLRPASPLMHIQGFLAALTTANQDGRVILSRQGSLSQSTLKFLLLNPAVHFAQVVKECRAVVIAGGTMQPVSDFRQQLLACAGVEAERVVEFSCGHVIPPDNILPLVICSGISNQPLEFTFQKRELPQMMDEVGRILCNLCGVVPGGVVCFFPSYEYLRQVHAHWEKGGLLGRLAARKKIFQEPKSAHQVEQVLLAYSRCIQACGQERGQVTGALLLSVVGGKMSEGINFSDNLGRCVVMVGMPFPNIRSAELQEKMAYLDQTLPRAPGQAPPGKALVENLCMKAVNQSIGRAIRHQKDFASVVLLDQRYARPPVLAKLPAWIRARVEVKATFGPAIAAVQKFHREKSASS
notes: DDX11 (ChlR1), human, full-length protein of 906 residues (1-906); also called Flag-tagged wild type (WT) DDX11; ChlR1; source: HEK 293T, transiently transfected (pcDNA 3.0); purified, and in whole cell extract; not shown: 3xFlag, C-terminal, kept
As to B2, the binding result in experiment [2] was “binds”.
